This note sets out measurements from publication doi:10.1101/2019.12.17.868638.

The target of the assay is Rl-SRDI565 sulfoquinovosidase, K375A/K376A variant (RlSQase*) (Rhizobium leguminosarum bv. trifolii SRDI565). Briefly: SEC-MALS. (In general: Size exclusion chromatography separates by hydrodynamic size, large species first.)

Broadly, the stoichiometry N is the number of molecules, sites or subunits per partner or assembly. Regarding “Rl-SRDI565 sulfoquinovosidase, K375A/K376A variant (RlSQase*) (enzyme)”, the stoichiometry N came to 2.
